In PMC6804253, “Predicting and Experimentally Validating Hot-Spot Residues at Protein–Protein Interfaces” (ACS Chemical Biology, 2019):
Residue numbers refer to the chain shown, from its start.

B1: 1A4Y EA401A (protein, UniProt P13489 2-461, looked up, variant E401A)
Ribonuclease inhibitor: SLDIQSLDIQCEELSDARWAELLPLLQQCQVVRLDDCGLTEARCKDISSALRVNPALAELNLRSNELGDVGVHCVLQGLQTPSCKIQKLSLQNCCLTGAGCGVLSSTLRTLPTLQELHLSDNLLGDAGLQLLCEGLLDPQCRLEKLQLEYCSLSAASCEPLASVLRAKPDFKELTVSNNDINEAGVRVLCQGLKDSPCQLEALKLESCGVTSDNCRDLCGIVASKASLRELALGSNKLGDVGMAELCPGLLHPSSRLRTLWIWECGITAKGCGDLCRVLRAKESLKELSLAGNELGDEGARLLCETLLEPGCQLESLWVKSCSFTAACCSHFSSVLAQNRFLLELQISNNRLEDAGVRELCQGLGQPGSVLRVLWLADCDVSDSSCSSLAATLLANHSLRALDLSNNCLGDAGILQLVESVRQPGCLLEQLVLYDIYWSEEMEDRLQALEKDKPSLRVIS
B2: 1A4Y DA435A (protein, UniProt P13489 2-461, looked up, variant D435A)
Ribonuclease inhibitor: B1 Ribonuclease inhibitor with A401E, D435A
B3: 1A4Y RA457A (protein, UniProt P13489 2-461, looked up, variant R457A)
Ribonuclease inhibitor: B1 Ribonuclease inhibitor with A401E, R457A
B4: 1DAN ST16A (protein, UniProt P13726 33-251, looked up, variant S16A)
extracellular domain: SGTTNTVAAYNLTWKATNFKTILEWEPKPVNQVYTVQISTKSGDWKSKCFYTTDTECDLTDEIVKDVKQTYLARVFSYPAGNVESTGSAGEPLYENSPEFTPYLETNLGQPTIQSFEQVGTKVNVTVEDERTLVRRNNTFLSLRDVFGKDLIYTLYYWKSSSSGKKTAKTNTNEFLIDVDKGENYCFSVQAVIPSRTVNRKSTDSPVECMGQEKGEFRE
modifications: extracellular domain
B5: 1DAN TT17A (protein, UniProt P13726 33-251, looked up, variant T17A)
extracellular domain: B4 extracellular domain with A16S, T17A
modifications: extracellular domain
B6: 1DAN NT18A (protein, UniProt P13726 33-251, looked up, variant N18A)
extracellular domain: B4 extracellular domain with A16S, N18A
modifications: extracellular domain
B7: 1DAN TT21A (protein, UniProt P13726 33-251, looked up, variant T21A)
extracellular domain: B4 extracellular domain with A16S, T21A
modifications: extracellular domain
B8: 1DAN ST42A (protein, UniProt P13726 33-251, looked up, variant S42A)
extracellular domain: B4 extracellular domain with A16S, S42A
modifications: extracellular domain
B9: 1DAN ST47A (protein, UniProt P13726 33-295, looked up, variant S47A)
Tissue factor: SGTTNTVAAYNLTWKSTNFKTILEWEPKPVNQVYTVQISTKSGDWKAKCFYTTDTECDLTDEIVKDVKQTYLARVFSYPAGNVESTGSAGEPLYENSPEFTPYLETNLGQPTIQSFEQVGTKVNVTVEDERTLVRRNNTFLSLRDVFGKDLIYTLYYWKSSSSGKKTAKTNTNEFLIDVDKGENYCFSVQAVIPSRTVNRKSTDSPVECMGQEKGEFREIFYIIGAVVFVVIILVIILAISLHKCRKAGVGQSWKENSPLNVS
B10: 1DAN TT52A (protein, UniProt P13726 33-251, looked up, variant T52A)
extracellular domain: B4 extracellular domain with A16S, T52A
modifications: extracellular domain
B11: 1DAN TT60A (protein, UniProt P13726 33-295, looked up, variant T60A)
Tissue factor: B9 Tissue factor with A47S, T60A
B12: 1DAN NU107A (protein, UniProt P13726 33-251, looked up, variant N107A)
extracellular domain: B4 extracellular domain with A16S, N107A
modifications: extracellular domain
B13: 1DAN QU110A (protein, UniProt P13726 33-251, looked up, variant Q110A)
extracellular domain: B4 extracellular domain with A16S, Q110A
modifications: extracellular domain
B14: 1DAN TU132A (protein, UniProt P13726 33-251, looked up, variant T132A)
extracellular domain: B4 extracellular domain with A16S, T132A
modifications: extracellular domain
B15: 1DAN TU139A (protein, UniProt P13726 33-251, looked up, variant T139A)
extracellular domain: B4 extracellular domain with A16S, T139A
modifications: extracellular domain
B16: 1DAN SU163A (protein, UniProt P13726 33-251, looked up, variant S163A)
extracellular domain: B4 extracellular domain with A16S, S163A
modifications: extracellular domain
B17: 1DAN TU172A (protein, UniProt P13726 33-251, looked up, variant T172A)
extracellular domain: B4 extracellular domain with A16S, T172A
modifications: extracellular domain
B18: 1DAN TU197A (protein, UniProt P13726 33-251, looked up, variant T197A)
extracellular domain: B4 extracellular domain with A16S, T197A
modifications: extracellular domain
B19: 1DAN TU203A (protein, UniProt P13726 33-251, looked up, variant T203A)
extracellular domain: B4 extracellular domain with A16S, T203A
modifications: extracellular domain
B20: 1EMV NA24A (protein, UniProt P13479 1-86, looked up, variant N24A)
Colicin-E9 immunity protein: MELKHSISDYTEAEFLQLVTTICAADTSSEEELVKLVTHFEEMTEHPSGSDLIYYPKEGDDDSPSGIVNTVKQWRAANGKSGFKQG

tested on: PPIs of the SKEMPI data set (by PDBID); assay: SKEMPI experimental ΔΔG, single mutations to alanine; format: binding; conditions: class by ΔΔG threshold 4.184 kJ/mol; ref SKEMPI

Molecule | sk_class (class of the SKEMPI experimental ΔΔG)
B1 | Neutral (neutral (little effect) 4.184 kJ/mol < ΔΔG > −4.184 kJ/mol)
B2 | Positive (positive (a hot residue) ΔΔG ≥ 4.184 kJ/mol)
B3 | Neutral (neutral (little effect) 4.184 kJ/mol < ΔΔG > −4.184 kJ/mol)

same assay, conditions: class of the SKEMPI experimental ΔΔG

Molecule | sk_class
B4 | Neutral (neutral (little effect) 4.184 kJ/mol < ΔΔG > −4.184 kJ/mol)
B5 | Neutral (neutral (little effect) 4.184 kJ/mol < ΔΔG > −4.184 kJ/mol)
B6 | Neutral (neutral (little effect) 4.184 kJ/mol < ΔΔG > −4.184 kJ/mol)
B7 | Neutral (neutral (little effect) 4.184 kJ/mol < ΔΔG > −4.184 kJ/mol)
B8 | Neutral (neutral (little effect) 4.184 kJ/mol < ΔΔG > −4.184 kJ/mol)
B9 | Neutral (neutral (little effect) 4.184 kJ/mol < ΔΔG > −4.184 kJ/mol)
B10 | Neutral (neutral (little effect) 4.184 kJ/mol < ΔΔG > −4.184 kJ/mol)
B11 | Positive (positive (a hot residue) ΔΔG ≥ 4.184 kJ/mol)
B12 | Neutral (neutral (little effect) 4.184 kJ/mol < ΔΔG > −4.184 kJ/mol)
B13 | Positive (positive (a hot residue) ΔΔG ≥ 4.184 kJ/mol)
B14 | Neutral (neutral (little effect) 4.184 kJ/mol < ΔΔG > −4.184 kJ/mol)
B15 | Neutral (neutral (little effect) 4.184 kJ/mol < ΔΔG > −4.184 kJ/mol)
B16 | Neutral (neutral (little effect) 4.184 kJ/mol < ΔΔG > −4.184 kJ/mol)
B17 | Neutral (neutral (little effect) 4.184 kJ/mol < ΔΔG > −4.184 kJ/mol)
B18 | Neutral (neutral (little effect) 4.184 kJ/mol < ΔΔG > −4.184 kJ/mol)
B19 | Neutral (neutral (little effect) 4.184 kJ/mol < ΔΔG > −4.184 kJ/mol)
B20 | Neutral (neutral (little effect) 4.184 kJ/mol < ΔΔG > −4.184 kJ/mol)

tested on: PPIs of the SKEMPI data set (by PDBID); assay: not given; conditions: single mutation to alanine; PPI given by PDBID; sheet sortedByGroup, r_group DERKH; ref SKEMPI; cited from earlier work

Molecule | sk_ddG_kJ (SKEMPI experimental ΔΔG, mutation to alanine)
B1 | 3.60 kJ
B2 | 14.56 kJ
B3 | -0.92 kJ

same assay, conditions: single mutation to alanine; complex given by PDBID; residue group SQNT; ref SKEMPI; cited from earlier work

Molecule | sk_ddG_kJ (SKEMPI experimental ΔΔG)
B4 | -0.54 kJ
B5 | 0.50 kJ
B6 | 0.75 kJ
B7 | -0.67 kJ
B8 | -0.29 kJ
B9 | -0.54 kJ
B10 | 1.67 kJ
B11 | 9.67 kJ
B12 | 0.00 kJ
B13 | 5.44 kJ
B14 | 0.00 kJ
B15 | -0.04 kJ
B16 | 0.08 kJ
B17 | -0.08 kJ
B18 | 0.46 kJ
B19 | 0.59 kJ
B20 | 0.59 kJ
